Data from publication PMC11270970.
pKd: −log10 of the molar value.

Target: nucleolin (NuP), recombinant human (Homo sapiens) (UniProt P19338)
Test: SPR
Conditions: SPR with recombinant human nucleolin, buffer, salt, pH and temperature not given in the material

Sequence of nucleolin (NuP), recombinant human (Homo sapiens) (P19338 2-710): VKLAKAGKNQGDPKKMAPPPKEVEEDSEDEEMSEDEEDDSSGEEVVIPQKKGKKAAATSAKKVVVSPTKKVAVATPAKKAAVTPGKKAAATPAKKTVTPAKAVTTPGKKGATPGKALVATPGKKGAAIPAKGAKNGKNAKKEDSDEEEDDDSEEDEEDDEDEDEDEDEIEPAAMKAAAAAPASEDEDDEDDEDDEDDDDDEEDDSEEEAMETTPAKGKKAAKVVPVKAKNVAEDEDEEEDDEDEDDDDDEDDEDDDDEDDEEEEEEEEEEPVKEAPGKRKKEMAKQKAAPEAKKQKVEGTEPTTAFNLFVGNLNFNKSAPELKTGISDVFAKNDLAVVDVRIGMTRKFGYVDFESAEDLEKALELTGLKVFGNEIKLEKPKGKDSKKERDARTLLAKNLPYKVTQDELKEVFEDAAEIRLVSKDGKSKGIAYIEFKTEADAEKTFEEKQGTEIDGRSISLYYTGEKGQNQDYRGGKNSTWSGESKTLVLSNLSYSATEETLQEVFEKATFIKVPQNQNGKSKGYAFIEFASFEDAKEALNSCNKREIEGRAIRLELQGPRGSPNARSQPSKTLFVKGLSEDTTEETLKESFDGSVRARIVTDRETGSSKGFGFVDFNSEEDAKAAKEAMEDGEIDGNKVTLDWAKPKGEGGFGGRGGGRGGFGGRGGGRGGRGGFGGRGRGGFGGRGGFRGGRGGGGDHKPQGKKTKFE

Row | Sequence | pKd (1:1 Langmuir fit, 5' CH2CH2-(OCH2CH2)3-O linker as listed in Table S1, 5' amino form also listed, form used in SPR not stated) | pKd (5' triptolide via acetal ester linker - amino-CH2CH2-(OCH2CH2)3-O-)
1 | GGTGGTGGTGGTTGTGGTGGTGGTGG [AS1411] | 8.42 | –
2 | GGTGGTGGTGGTTGTGGTGGTGGTGG [AS-TP (TP-amino-AS1411, 6a)] | – | 8.39
